Experimental findings from paper PMC3945225, “RBPJ, the Major Transcriptional Effector of Notch Signaling, Remains Associated with Chromatin throughout Mitosis, Suggesting a Role in Mitotic Bookmarking” are described below.

In the data set the target is Flag-RBPJ (mouse, UniProt P31266-2 1-487). In words: EMSA; 1 nM DNA; 12 mM Hepes pH 7.9, 10 mM Tris-HCl pH 7.5, 60 mM KCl, 8% glycerol, 4 mM MgCl2, 0.02% NP40, 30 C; 5% PAGE 0.5x TBE. The note with it: protein: recombinant; tags: Flag; label: 32P (T4 PNK); blunt.
Flag-RBPJ, sequence (P31266 other isoform, or with tags, fused parts or gaps): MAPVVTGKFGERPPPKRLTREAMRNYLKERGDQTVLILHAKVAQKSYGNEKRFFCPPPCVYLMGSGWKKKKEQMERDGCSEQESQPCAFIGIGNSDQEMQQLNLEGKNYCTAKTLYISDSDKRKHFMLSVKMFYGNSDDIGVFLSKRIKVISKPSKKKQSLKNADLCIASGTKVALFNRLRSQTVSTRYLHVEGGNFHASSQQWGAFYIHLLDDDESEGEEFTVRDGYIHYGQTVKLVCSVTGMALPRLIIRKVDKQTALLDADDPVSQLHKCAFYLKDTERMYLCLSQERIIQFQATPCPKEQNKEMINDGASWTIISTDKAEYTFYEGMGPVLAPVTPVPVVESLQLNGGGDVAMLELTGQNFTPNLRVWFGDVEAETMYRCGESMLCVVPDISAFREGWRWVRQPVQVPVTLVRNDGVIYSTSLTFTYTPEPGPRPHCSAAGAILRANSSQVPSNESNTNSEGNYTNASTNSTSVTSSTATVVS

B1: 16 bp RBPJ motif DNA (dsDNA)
DNA 1: CACTGGGAACCTACCC
DNA 2: GGGTAGGTTCCCAGTG
Regarding B1, the binding result is “binds”.
